Reference: article PMC2408619

Biological target: T1, Bordetella bacteriophage major tropism determinant variant Mtd-P1 (Bordetella bacteriophage BPP-1), Q775D6
T1 chain: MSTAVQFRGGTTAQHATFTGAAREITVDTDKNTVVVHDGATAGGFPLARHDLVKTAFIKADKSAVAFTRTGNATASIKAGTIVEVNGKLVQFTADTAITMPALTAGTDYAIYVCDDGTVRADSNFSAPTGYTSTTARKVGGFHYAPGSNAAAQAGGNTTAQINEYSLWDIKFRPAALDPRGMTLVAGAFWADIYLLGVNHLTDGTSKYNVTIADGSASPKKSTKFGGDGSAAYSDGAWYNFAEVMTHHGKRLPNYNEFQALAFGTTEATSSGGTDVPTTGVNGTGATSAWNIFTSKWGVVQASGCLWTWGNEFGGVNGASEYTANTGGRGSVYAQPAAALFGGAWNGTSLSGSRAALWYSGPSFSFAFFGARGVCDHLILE
Experiment: crystal structure; Mtd-P1·Prn-E complex formed with ~1.6-fold molar excess of Mtd-P1 trimers over His-tagged Prn-E, isolated by Ni2+-chelation and Superdex 200; crystals at 25 °C in 2 M NaCl, 100 mM Tris pH 8.5, 200 mM Li2SO4; 3.16 Å
Settings: remark: other sources report otherwise

B1: Bordetella bacteriophage major tropism determinant variant Mtd-P1, Q775D6 1-381 (natural protein)
chain: T1 chain
- stoichiometry N: 3
